Assay results reported in article PMC4909209.

How the values were obtained:
[1] = target: de-tagged Ls-AChBP (Lymnaea stagnalis acetylcholine binding protein) (Lymnaea stagnalis) (UniProt P58154); test: radioligand binding
[2] = target: ubiquitin tagged Ac-AChBP (Aplysia californica acetylcholine binding protein) (Aplysia californica); test: radioligand binding

Row | Substance | Ki [1] [nM] | Ki [2] [nM]
1 | alpha-conotoxin LsIA (peptide) | 700 | 11
2 | alpha-conotoxin ImI (from UniProt P50983 5-17) (peptide) | > 10000 | 3
